Here are results for two molecules from patent US20110098443A1 (Janssen / Centocor, published 2011).

The target in assay [1] is T1, human GLP-1 receptor (full length, on cells) (human, UniProt P43220 24-463). The assay can be described thus: calculated from the 125I GLP-1 displacement IC50, assuming a GLP-1 Kd of 3 nM and competitive inhibition; Ki derived from the IC50, assuming GLP-1 Kd of 3 nM and competitive inhibition.
The target of assay [2] is T1, human GLP-1 receptor (full length, on …). The experiment in a line: displacement of 3 nM 125I GLP-1 from HEK293F cells over-expressing human GLP-1R, overnight at 4 C; IC50 fitted directly from displacement of 3 nM 125I GLP-1.
For assay [3] the target is unchanged. The experiment in a line: cell-based or functional assay.
The target of assay [4] is T2, mouse IL-18 (biotinylated control protein) (mouse, UniProt P70380 36-192, biotinylated (site not stated)).
T2 sequence (looked up): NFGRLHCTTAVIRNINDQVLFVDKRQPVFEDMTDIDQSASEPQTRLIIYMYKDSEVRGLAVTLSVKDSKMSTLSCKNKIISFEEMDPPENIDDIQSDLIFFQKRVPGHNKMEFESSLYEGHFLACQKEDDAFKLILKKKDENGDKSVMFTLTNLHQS
The assay can be described thus: neutravidin capture ELISA. As to the method: (§1) The first characterization assay was a neutravidin capture assay. 96-well Maxisorp plates were coated (100 μl/well) with 5 μg/ml of neutravidin in PBS and were incubated at 4° C. overnight. Coated plates were washed with TBST. […] Plates were washed with TBST and blocked with 300 μl/well of 1× Chemiblocker for 1 hour at RT. Plates were washed with TBST. […] Plates were washed with TBST. Plates were treated for 1 hour at RT with 100 μl/well of goat anti-human IgG (H+L)-AP detection antibody diluted 1:5000 in TBST. AttoPhos substrate (1:5) detected AP activity.
Background: ELISA stands for enzyme-linked immunosorbent assay.

Assay [5] concerns the target T3, mouse IL-23 (biotinylated control protein) (mouse, UniProt Q9EQ14 22-196; P43432 23-335, biotinylated (site not stated)).
T3 sequence (looked up) 1: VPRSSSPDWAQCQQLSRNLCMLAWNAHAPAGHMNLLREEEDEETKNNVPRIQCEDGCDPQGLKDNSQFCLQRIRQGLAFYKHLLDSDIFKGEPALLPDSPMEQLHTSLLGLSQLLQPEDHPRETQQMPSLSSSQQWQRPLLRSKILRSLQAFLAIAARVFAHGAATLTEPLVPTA
T3 sequence (looked up) 2: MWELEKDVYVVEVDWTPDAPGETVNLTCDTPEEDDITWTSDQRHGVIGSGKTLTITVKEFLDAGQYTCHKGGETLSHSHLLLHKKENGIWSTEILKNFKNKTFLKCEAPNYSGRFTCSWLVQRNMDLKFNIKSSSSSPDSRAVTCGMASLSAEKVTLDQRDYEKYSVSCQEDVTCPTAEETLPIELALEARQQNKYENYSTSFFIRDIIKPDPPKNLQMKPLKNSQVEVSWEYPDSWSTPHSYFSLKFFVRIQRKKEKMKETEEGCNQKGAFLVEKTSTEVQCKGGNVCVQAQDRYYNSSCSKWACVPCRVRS
The experiment in a line: neutravidin capture ELISA. The procedure: as §1

Assay [6] concerns the target T4, mouse IL-12 (biotinylated control protein) (mouse, UniProt P43431 23-215; P43432 23-335, biotinylated (site not stated)).
T4 sequence (looked up) 1: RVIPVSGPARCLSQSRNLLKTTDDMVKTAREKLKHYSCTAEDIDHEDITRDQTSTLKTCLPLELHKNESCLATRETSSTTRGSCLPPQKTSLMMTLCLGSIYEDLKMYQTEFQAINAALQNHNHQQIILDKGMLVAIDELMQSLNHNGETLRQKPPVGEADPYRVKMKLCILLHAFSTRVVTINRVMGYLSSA
T4 sequence (looked up) 2: T3 sequence (looked up) 2
The assay can be described thus: neutravidin capture ELISA. As to the method:
as §1

For assay [7], the target named is rat transferrin (biotinylated control protein) (rat, UniProt P12346 20-698, biotinylated (site not stated)). The experiment in a line: neutravidin capture ELISA. The procedure:
as §1

rat transferrin (biotinylated control protein), sequence (P12346 20-698 limits assumed): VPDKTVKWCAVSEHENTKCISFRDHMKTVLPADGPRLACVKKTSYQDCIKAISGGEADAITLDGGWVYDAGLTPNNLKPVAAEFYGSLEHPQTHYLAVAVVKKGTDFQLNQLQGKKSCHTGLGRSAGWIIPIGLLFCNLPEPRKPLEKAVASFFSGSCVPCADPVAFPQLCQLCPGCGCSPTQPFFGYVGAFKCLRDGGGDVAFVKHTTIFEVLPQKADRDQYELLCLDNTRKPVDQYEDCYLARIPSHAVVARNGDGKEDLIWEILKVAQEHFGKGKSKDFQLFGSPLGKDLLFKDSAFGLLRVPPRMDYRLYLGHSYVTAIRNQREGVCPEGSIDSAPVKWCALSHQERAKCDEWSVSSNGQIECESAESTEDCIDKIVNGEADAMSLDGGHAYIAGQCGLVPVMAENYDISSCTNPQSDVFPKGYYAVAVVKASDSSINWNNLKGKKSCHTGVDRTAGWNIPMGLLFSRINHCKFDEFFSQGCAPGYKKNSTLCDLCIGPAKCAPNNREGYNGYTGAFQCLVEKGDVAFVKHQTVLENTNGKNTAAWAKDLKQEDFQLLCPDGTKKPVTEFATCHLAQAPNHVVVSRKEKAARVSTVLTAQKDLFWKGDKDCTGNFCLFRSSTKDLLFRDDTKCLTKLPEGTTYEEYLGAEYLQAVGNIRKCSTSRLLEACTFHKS

B1: PHD 191 (format not stated in the assay) (antibody, V domains shown)
VH: QVELVQSGAEVKKPGSSVKVSCKASGGTFSAIHWVRQAPGQGLEWMGGIIPIFGMADYAQKFQGRVTITADESTSTAYMELSSLRSEDTAVYYCARTDYGFRALDYWGQGTLVTVSS
VL: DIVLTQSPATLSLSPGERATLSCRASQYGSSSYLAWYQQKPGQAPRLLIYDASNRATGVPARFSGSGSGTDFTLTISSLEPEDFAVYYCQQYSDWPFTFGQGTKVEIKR
As to B1, the Ki (usually the dissociation constant of the complex between target and ligand, obtained from inhibition or displacement) in assay [1] was ~0.02 µM. Besides, in assay [2], the half-maximal inhibitory concentration (IC50) (commonly the concentration that gives 50% inhibition) was found to be 0.0485 µM. Besides, in assay [3], the “IC50 of inhibition of GLP-1 dependent cAMP accumulation (0.3 nM GLP-1, HEK293F cells over-expressing human GLP-1R)” value came to 0.0033 µM.

B2: PHD 191 mAb, human IgG1 / human kappa (antibody, V domains shown)
VH: B1 VH
VL: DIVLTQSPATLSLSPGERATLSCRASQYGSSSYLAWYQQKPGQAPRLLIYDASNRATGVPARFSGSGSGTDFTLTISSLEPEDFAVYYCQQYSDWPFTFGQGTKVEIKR
notes: The human IgG1/kappa format is inferred from the goat anti-human IgG (H+L) detection antibody
On to B2, for which the binding result in assay [4], in assay [5], in assay [6] and in assay [7] was “no binding (tested: starting at 5 µg/ml)” each time.
